In PMC2701438:

Target: Full length LEF-1 (1-399) (human) (UniProt Q9UJU2)
Chain of UniProt Q9UJU2 (Q9UJU2 whole entry): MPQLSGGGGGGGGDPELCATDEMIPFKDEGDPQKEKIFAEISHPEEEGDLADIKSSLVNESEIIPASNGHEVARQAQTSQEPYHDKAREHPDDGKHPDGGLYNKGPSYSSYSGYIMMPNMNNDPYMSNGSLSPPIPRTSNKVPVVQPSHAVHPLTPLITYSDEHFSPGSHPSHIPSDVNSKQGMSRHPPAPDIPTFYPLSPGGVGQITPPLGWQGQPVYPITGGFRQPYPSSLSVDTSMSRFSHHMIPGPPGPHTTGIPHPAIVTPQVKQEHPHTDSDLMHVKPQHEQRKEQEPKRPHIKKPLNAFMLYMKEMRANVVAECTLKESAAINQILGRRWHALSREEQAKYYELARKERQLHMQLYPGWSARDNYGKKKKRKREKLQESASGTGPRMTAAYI

Molecule “GST-Groucho (Drosophila), recovered as a 97 kDa protease-stable fusion protein (from UniProt P16371 1-730) (natural protein)” has a repression of LEF-1•β-catenin activated TOPFlash luciferase reporter in COS-1 cells, 250 and 500 ng Groucho expression vector of 3 fold.

For “human TLE-2 (from UniProt Q04725 1-743) (natural protein)”, the repression of LEF-1•β-catenin activated TOPFlash luciferase reporter in COS-1 cells was 3 fold.

B1: human Amino-enhancer-of-split (AES) (natural protein)
chain: MMFPQSRHSGSSHLPQQLKFTTSDSCDRIKDEFQLLQAQYHSLKLECDKLASEKSEMQRHYVMYYEMSYGLNIEMHKQAEIVKRLNGICAQVLPYLSQEHQQQVLGAIERAKQVTAPELNSIIRQQLQAHQLSQLQALALPLTPLPVGLQPPSLPAVSAGTGLLSLSALGSQAHLSKEDKNGHDGDTHQEDDGEKSD
Work on B1 yielded a repression of LEF-1•β-catenin activated TOPFlash luciferase reporter in COS-1 cells, 250 and 500 ng AES expression vector of 3 fold.
